Assay: melting temperature; melt of duplexes
Conditions: sodium 0.0675 M; strand 1 µM

For “CGACGTGCACTATGTGCTG+CAGCACATTGGGCACGTCG ((((((((.(.((((((((+)))))))).).))))))))”, the Tm was 53.3 °C.

With “CGACGTGCACTATGTGCTG+CAGCACATTTAGCACGTCG ((((((((...((((((((+))))))))...))))))))” the Tm was 42.7 °C.

Substance “CGACGTGCACTATGTGCTG+CAGCACATTTGGCACGTCG ((((((((...((((((((+))))))))...))))))))” has a Tm of 45.3 °C.

“CGACGTGCAGAATGTGCTG+CAGCACATAAGGCACGTCG ((((((((...((((((((+))))))))...))))))))” gave a Tm of 51 °C.

For “CGACGTGCAGAATGTGCTG+CAGCACATAATGCACGTCG (((((((((..((((((((+))))))))..)))))))))”, the Tm was 54.2 °C.

With “CGACGTGCAGAATGTGCTG+CAGCACATACAGCACGTCG ((((((((.(.((((((((+)))))))).).))))))))” the Tm was 52 °C.

Work on “CGACGTGCAGAATGTGCTG+CAGCACATACTGCACGTCG ((((((((((.((((((((+)))))))).))))))))))” yielded a Tm of 57.8 °C.

“CGACGTGCAGAATGTGCTG+CAGCACATAGGGCACGTCG ((((((((...((((((((+))))))))...))))))))” showed a Tm of 49.2 °C.

“CGACGTGCAGAATGTGCTG+CAGCACATATTGCACGTCG (((((((((..((((((((+))))))))..)))))))))” showed a Tm of 50.5 °C.

In the case of “CGACGTGCAGAATGTGCTG+CAGCACATCACGCACGTCG ((((((((...((((((((+))))))))...))))))))”, the Tm is reported as 50.1 °C.

Substance “CGACGTGCAGAATGTGCTG+CAGCACATCCAGCACGTCG ((((((((.(.((((((((+)))))))).).))))))))” has a Tm of 51.6 °C.

In the case of “CGACGTGCAGAATGTGCTG+CAGCACATCGAGCACGTCG ((((((((...((((((((+))))))))...))))))))”, the Tm is reported as 50.3 °C.

Work on “CGACGTGCAGAATGTGCTG+CAGCACATGACGCACGTCG ((((((((...((((((((+))))))))...))))))))” yielded a Tm of 53.1 °C.

“CGACGTGCAGAATGTGCTG+CAGCACATGATGCACGTCG (((((((((..((((((((+))))))))..)))))))))” gave a Tm of 57.9 °C.

Work on “CGACGTGCAGAATGTGCTG+CAGCACATGCAGCACGTCG ((((((((.(.((((((((+)))))))).).))))))))” yielded a Tm of 54.6 °C.

Substance “CGACGTGCAGAATGTGCTG+CAGCACATGCCGCACGTCG ((((((((.(.((((((((+)))))))).).))))))))” has a Tm of 54.6 °C.

With “CGACGTGCAGAATGTGCTG+CAGCACATGCGGCACGTCG ((((((((.(.((((((((+)))))))).).))))))))” the Tm was 54.4 °C.

In the case of “CGACGTGCAGAATGTGCTG+CAGCACATGCTGCACGTCG ((((((((((.((((((((+)))))))).))))))))))”, the Tm is reported as 58.6 °C.

For “CGACGTGCAGAATGTGCTG+CAGCACATGGAGCACGTCG ((((((((...((((((((+))))))))...))))))))”, the Tm was 55.6 °C.

Work on “CGACGTGCAGAATGTGCTG+CAGCACATGGTGCACGTCG (((((((((..((((((((+))))))))..)))))))))” yielded a Tm of 52.6 °C.

“CGACGTGCAGAATGTGCTG+CAGCACATTAGGCACGTCG ((((((((..(((((((((+)))))))))..))))))))” gave a Tm of 54.1 °C.

For “CGACGTGCAGAATGTGCTG+CAGCACATTCGGCACGTCG ((((((((.((((((((((+)))))))))).))))))))”, the Tm was 59.9 °C.

In the case of “CGACGTGCAGAATGTGCTG+CAGCACATTGCGCACGTCG ((((((((..(((((((((+)))))))))..))))))))”, the Tm is reported as 52.1 °C.

“CGACGTGCAGAATGTGCTG+CAGCACATTGTGCACGTCG (((((((((.(((((((((+))))))))).)))))))))” gave a Tm of 55.8 °C.

“CGACGTGCAGCATGTGCTG+CAGCACATACAGCACGTCG ((((((((.(.((((((((+)))))))).).))))))))” showed a Tm of 48.3 °C.

“CGACGTGCAGCATGTGCTG+CAGCACATACGGCACGTCG ((((((((.(.((((((((+)))))))).).))))))))” showed a Tm of 49.3 °C.

Work on “CGACGTGCAGCATGTGCTG+CAGCACATATGGCACGTCG ((((((((...((((((((+))))))))...))))))))” yielded a Tm of 46.7 °C.

With “CGACGTGCAGCATGTGCTG+CAGCACATCATGCACGTCG (((((((((..((((((((+))))))))..)))))))))” the Tm was 49.5 °C.

Substance “CGACGTGCAGCATGTGCTG+CAGCACATCCGGCACGTCG ((((((((.(.((((((((+)))))))).).))))))))” has a Tm of 49 °C.

For “CGACGTGCAGCATGTGCTG+CAGCACATCGCGCACGTCG ((((((((...((((((((+))))))))...))))))))”, the Tm was 51.6 °C.

With “CGACGTGCAGCATGTGCTG+CAGCACATGCAGCACGTCG ((((((((.((((((((((+)))))))))).))))))))” the Tm was 60.8 °C.

“CGACGTGCAGCATGTGCTG+CAGCACATGCCGCACGTCG ((((((((.((((((((((+)))))))))).))))))))” gave a Tm of 59.1 °C.

“CGACGTGCAGCATGTGCTG+CAGCACATGGAGCACGTCG ((((((((..(((((((((+)))))))))..))))))))” showed a Tm of 54.1 °C.

For “CGACGTGCAGCATGTGCTG+CAGCACATGGGGCACGTCG ((((((((..(((((((((+)))))))))..))))))))”, the Tm was 56.9 °C.

For “CGACGTGCAGCATGTGCTG+CAGCACATTCCGCACGTCG ((((((((.(.((((((((+)))))))).).))))))))”, the Tm was 46.4 °C.

With “CGACGTGCAGCATGTGCTG+CAGCACATTCGGCACGTCG ((((((((.(.((((((((+)))))))).).))))))))” the Tm was 49.7 °C.

“CGACGTGCAGCATGTGCTG+CAGCACATTTGGCACGTCG ((((((((...((((((((+))))))))...))))))))” showed a Tm of 45.4 °C.

“CGACGTGCAGGATGTGCTG+CAGCACATAACGCACGTCG ((((((((...((((((((+))))))))...))))))))” showed a Tm of 50.8 °C.

“CGACGTGCAGGATGTGCTG+CAGCACATAATGCACGTCG (((((((((..((((((((+))))))))..)))))))))” gave a Tm of 55.2 °C.

“CGACGTGCAGGATGTGCTG+CAGCACATACAGCACGTCG ((((((((.(.((((((((+)))))))).).))))))))” gave a Tm of 55 °C.

With “CGACGTGCAGGATGTGCTG+CAGCACATACGGCACGTCG ((((((((.(.((((((((+)))))))).).))))))))” the Tm was 56.1 °C.

“CGACGTGCAGGATGTGCTG+CAGCACATAGAGCACGTCG ((((((((...((((((((+))))))))...))))))))” gave a Tm of 49.4 °C.

Work on “CGACGTGCAGGATGTGCTG+CAGCACATAGCGCACGTCG ((((((((...((((((((+))))))))...))))))))” yielded a Tm of 49.6 °C.

With “CGACGTGCAGGATGTGCTG+CAGCACATAGTGCACGTCG (((((((((..((((((((+))))))))..)))))))))” the Tm was 50.6 °C.

Substance “CGACGTGCAGGATGTGCTG+CAGCACATCACGCACGTCG ((((((((..(((((((((+)))))))))..))))))))” has a Tm of 55.9 °C.

Substance “CGACGTGCAGGATGTGCTG+CAGCACATCAGGCACGTCG ((((((((..(((((((((+)))))))))..))))))))” has a Tm of 56.6 °C.

For “CGACGTGCAGGATGTGCTG+CAGCACATCCAGCACGTCG ((((((((.((((((((((+)))))))))).))))))))”, the Tm was 59.8 °C.

“CGACGTGCAGGATGTGCTG+CAGCACATCCGGCACGTCG ((((((((.((((((((((+)))))))))).))))))))” gave a Tm of 62.2 °C.

“CGACGTGCAGGATGTGCTG+CAGCACATCTGGCACGTCG ((((((((..(((((((((+)))))))))..))))))))” showed a Tm of 57.1 °C.

Substance “CGACGTGCAGGATGTGCTG+CAGCACATGAAGCACGTCG ((((((((...((((((((+))))))))...))))))))” has a Tm of 50.3 °C.

Substance “CGACGTGCAGGATGTGCTG+CAGCACATGACGCACGTCG ((((((((...((((((((+))))))))...))))))))” has a Tm of 47.3 °C.

For “CGACGTGCAGGATGTGCTG+CAGCACATGATGCACGTCG (((((((((..((((((((+))))))))..)))))))))”, the Tm was 55 °C.

In the case of “CGACGTGCAGGATGTGCTG+CAGCACATGCAGCACGTCG ((((((((.(.((((((((+)))))))).).))))))))”, the Tm is reported as 55 °C.

Work on “CGACGTGCAGGATGTGCTG+CAGCACATGCCGCACGTCG ((((((((.(.((((((((+)))))))).).))))))))” yielded a Tm of 54 °C.

In the case of “CGACGTGCAGGATGTGCTG+CAGCACATGCGGCACGTCG ((((((((.(.((((((((+)))))))).).))))))))”, the Tm is reported as 55.3 °C.

Work on “CGACGTGCAGGATGTGCTG+CAGCACATGCTGCACGTCG ((((((((((.((((((((+)))))))).))))))))))” yielded a Tm of 59.6 °C.

With “CGACGTGCAGGATGTGCTG+CAGCACATGGAGCACGTCG ((((((((...((((((((+))))))))...))))))))” the Tm was 50.3 °C.

With “CGACGTGCAGGATGTGCTG+CAGCACATGGCGCACGTCG ((((((((...((((((((+))))))))...))))))))” the Tm was 49.9 °C.

“CGACGTGCAGGATGTGCTG+CAGCACATGGGGCACGTCG ((((((((...((((((((+))))))))...))))))))” showed a Tm of 50.4 °C.

Work on “CGACGTGCAGGATGTGCTG+CAGCACATGTGGCACGTCG ((((((((...((((((((+))))))))...))))))))” yielded a Tm of 50.9 °C.

“CGACGTGCAGGATGTGCTG+CAGCACATTACGCACGTCG ((((((((...((((((((+))))))))...))))))))” showed a Tm of 50.7 °C.

“CGACGTGCAGGATGTGCTG+CAGCACATTAGGCACGTCG ((((((((...((((((((+))))))))...))))))))” showed a Tm of 51.3 °C.

With “CGACGTGCAGGATGTGCTG+CAGCACATTCGGCACGTCG ((((((((.(.((((((((+)))))))).).))))))))” the Tm was 56.2 °C.

With “CGACGTGCAGGATGTGCTG+CAGCACATTTAGCACGTCG ((((((((...((((((((+))))))))...))))))))” the Tm was 50.3 °C.

Work on “CGACGTGCAGTATGTGCTG+CAGCACATAATGCACGTCG (((((((((.(((((((((+))))))))).)))))))))” yielded a Tm of 57 °C.

With “CGACGTGCAGTATGTGCTG+CAGCACATACAGCACGTCG ((((((((.((((((((((+)))))))))).))))))))” the Tm was 57.4 °C.

With “CGACGTGCAGTATGTGCTG+CAGCACATACGGCACGTCG ((((((((.((((((((((+)))))))))).))))))))” the Tm was 58.3 °C.

“CGACGTGCAGTATGTGCTG+CAGCACATAGCGCACGTCG ((((((((..(((((((((+)))))))))..))))))))” gave a Tm of 51.7 °C.

Substance “CGACGTGCAGTATGTGCTG+CAGCACATCACGCACGTCG ((((((((...((((((((+))))))))...))))))))” has a Tm of 50.9 °C.

In the case of “CGACGTGCAGTATGTGCTG+CAGCACATCAGGCACGTCG ((((((((...((((((((+))))))))...))))))))”, the Tm is reported as 50.2 °C.

In the case of “CGACGTGCAGTATGTGCTG+CAGCACATCCTGCACGTCG ((((((((((.((((((((+)))))))).))))))))))”, the Tm is reported as 56.3 °C.

“CGACGTGCAGTATGTGCTG+CAGCACATCGAGCACGTCG ((((((((...((((((((+))))))))...))))))))” gave a Tm of 50.1 °C.

Reference: the array DNA melting data of Ke et al.
